Source: patent publication US20030165811A1, “Method for determining the activity of ornithine decarboxylase and for identifying effectors of ornithine decarboxylase activity” (priority 2001, published 2003)

How the values were obtained:
[1] = test system: ornithine decarboxylase (ODC); assay: Antizyme assay: spot test growth of ODC-knockout yeast complemented with human ODC on polyamine-free medium; format: cell-based; details: for inhibition of ODC activity (growth inhibition of the yeast cells): antizyme expressed from yeast promoters ADH, GaI1 or GPD in Y15034 with p413GaIL-ODC, PFSC plate, 30° C.
Experimental: The polyamine-dependent yeast strain Y15034 (ODC-knockout) and the corresponding wild-type strain Y10000 were each transformed by the Li acetate method with the plasmid p413GaIL-ODC. In addition, each of the 12 antizyme expression plasmids described in Example 2 and, as control, corresponding blank plasmids were cotransformed.
(§1) The transformants were plated out on Synthetic Complete (SC) medium (His-, Ura-,2% glucose, Difco). For each transformation, an overnight culture was inoculated in PFSC medium (His-, Ura-, 2% glucose). This was used firstly to carry out a spot test, i.e. the yeasts were adjusted to OD600 3.0 and subjected to 10-fold dilutions (5×). 2 μl of each dilution, starting with OD600 3.0, were placed as a drop on a PFSC plate (His-, Ura-, 2% galactose/raffinose [1:1]), and the plates were incubated at 30° C.

[2] = test system: antizyme; assay: Antizyme inhibitor assay: spot test growth of yeast co-expressing ODC, antizyme and AZI on polyamine-free medium; format: cell-based, human; details: AZI expressed from ADH, GaIL or GPD promoter (p415); PFSC plate, 30° C.
Experimental: The yeasts prepared in Example 6 were each additionally cotransformed with the 3 AZI expression plasmids (p415ADH-AZI, p415GaIL-AZI and p415GPD-AZI) described in Example 3 and with the corresponding blank plasmids.
as §1, with “Ura-,Leu-, 2% glucose).” for “Ura-,2% glucose, Difco).”, “Ura-, Leu-,” for “Ura-,”, “with an” for “with”, “3.0” for “3.0,”

Sequence of ornithine decarboxylase (ODC) (P11926 whole entry): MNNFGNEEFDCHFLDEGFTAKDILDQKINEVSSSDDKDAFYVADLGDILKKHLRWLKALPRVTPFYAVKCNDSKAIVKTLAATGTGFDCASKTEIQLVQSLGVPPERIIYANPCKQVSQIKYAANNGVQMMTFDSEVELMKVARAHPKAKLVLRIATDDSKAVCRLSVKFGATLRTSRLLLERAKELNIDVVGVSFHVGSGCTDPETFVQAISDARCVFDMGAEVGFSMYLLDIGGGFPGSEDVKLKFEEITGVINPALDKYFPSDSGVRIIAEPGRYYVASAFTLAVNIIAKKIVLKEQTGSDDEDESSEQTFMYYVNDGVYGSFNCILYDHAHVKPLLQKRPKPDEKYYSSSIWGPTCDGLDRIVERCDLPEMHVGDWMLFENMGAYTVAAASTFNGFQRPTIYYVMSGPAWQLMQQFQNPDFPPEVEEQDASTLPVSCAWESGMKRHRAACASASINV

NCCCCN [putrescine, reference compound]
abolition of the antizyme-related growth inhibition ([1]; addition of putrescine to polyamine-free medium): abolish the growth inhibition

Antizyme 1: human ODC antizyme 1 (Acc. No. D87914), protein that binds and inhibits ODC, expressed in yeast from plasmid
inhibition of ODC activity (growth inhibition of the yeast cells) [1]: achieved inhibition of ODC activity only with the strong GPD promoter

B1: antizyme 3: human ODC antizyme 3 (Acc. No. AF175296), expressed in yeast from plasmid (protein, UniProt Q9UMX2 1-235, looked up)
Ornithine decarboxylase …: MPCKRCRPSVYSLSYIKRGKTRNYLYPIWSPYAYYLYCYKYRITLREKMLPRCYKSITYKEEEDLTLQPRSCLQCSESLVGLQEGKSTEQGNHDQLKELYSAGNLTVLATDPLLHQDPVQLDFHFRLTSQTSAHWHGLLCDRRLFLDIPYQALDQGNRESLTATLEYVEEKTNVDSVFVNFQNDRNDRGALLRAFSYMGFEVVRPDHPALPPLDNVIFMVYPLERDVGHLPSEPP
inhibition of ODC activity (growth inhibition of the yeast cells) [1]: also by the GaI1 promoter

B2: antizyme 2: human ODC antizyme 2 (Acc. No. AF057297), expressed in yeast from plasmid (protein, UniProt O95190 1-189, looked up)
Ornithine decarboxylase …: MINTQDSSILPLSNCPQLQCCRHIVPGPLWCSDAPHPLSKIPGGRGGGRDPSLSALIYKDEKLTVTQDLPVNDGKPHIVHFQYEVTEVKVSSWDAVLSSQSLFVEIPDGLLADGSKEGLLALLEFAEEKMKVNYVFICFRKGREDRAPLLKTFSFLGFEIVRPGHPCVPSRPDVMFMVYPLDQNLSDED
inhibition of ODC activity (growth inhibition of the yeast cells) [1]: effective inhibition of ODC activity was made possible also by the ADH promoter

B3: antizyme inhibitor: human antizyme inhibitor, binds antizyme and releases ODC; full-length clone from human liver cDNA, expressed in yeast (protein, UniProt O14977 1-448, looked up)
chain: MKGFIDDANYSVGLLDEGTNLGNVIDNYVYEHTLTGKNAFFVGDLGKIVKKHSQWQNVVAQIKPFYTVKCNSAPAVLEILAALGTGFACSSKNEMALVQELGVPPENIIYISPCKQVSQIKYAAKVGVNILTCDNEIELKKIARNHPNAKVLLHIATEDNIGGEEGNMKFGTTLKNCRHLLECAKELDVQIIGVKFHVSSACKESQVYVHALSDARCVFDMAGEIGFTMNMLDIGGGFTGTEFQLEEVNHVISPLLDIYFPEGSGVKIISEPGSYYVSSAFTLAVNIIAKKVVENDKFPSGVEKTGSDEPAFMYYMNDGVYGSFASKLSEDLNTIPEVHKKYKEDEPLFTSSLWGPSCDELDQIVESCLLPELNVGDWLIFDNMGADSFHEPSAFNDFQRPAIYYMMSFSDWYEMQDAGITSDSMMKNFFFVPSCIQLSQEDSFSAEA
modifications: full-length
notes: full-length clone from human liver cDNA, expressed in yeast
abolition of the ODC inhibition caused by antizyme [2]: the ODC inhibition caused by antizyme was abolished
